Tested on: MS2 coat protein
Experiment: apparent KD of MS2 coat protein; designed switch direction (-1 OFF switch, 1 ON switch): -1; higher = weaker reporter binding
Outline: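 Transcription of designed RNA switches on Illumina chips was done by stalled E. coli RNA polymerase. SNAP-549-labelled MS2 coat protein was then titrated in doubling steps from 0.7 or 1.5 nM to 3 µM, with steps of 0.8–1.5 h at the lowest and 10–20 min at the highest concentration. The per-design median over clusters of curve-fitted normalised fluorescence is reported as apparent KD.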

[1] = Eterna round: R95, input ligand: FMN 200 uM
[2] = Eterna round: R95, input ligand: microRNA oligo, concentration not stated
[3] = Eterna round: R95, input ligand: none
[4] = input ligand: microRNA oligo, concentration not stated

Sequence: AACAAGGGUUAAUGUACGGACAUGAGGAUCACCCAUGUCCACGGAUGUGUGGAGAGGUCCUCUUUGGCUCGUCUUAU [Cac Sensor turn off var1 sub10] (Eterna round: R97, puzzle: Sensor, turn-off variant 1)
- apparent KD of MS2 coat protein (input ligand: FMN 200 uM): 47.8 nM
- apparent KD of MS2 coat protein (input ligand: none): 87.8 nM

Sequence: AACAGUCUAGAGGAUAUGUGCGAUUAAUAUCGUGCAGAAGGCUGGACAUGAGGAUCACCCAUGUAAAUACUACC [Omei Ex6 A16] (Eterna round: R97, puzzle: Exclusion 6)
- apparent KD of MS2 coat protein (input ligand: FMN 200 uM): 79.4 nM
- apparent KD of MS2 coat protein (input ligand: none): 34 nM

Sequence: AACAUGUUAGGAUAUGGUCCUGUGCCACAUGGAGGUUUAGGUUAGAAGGGACAUGAGGAUCACCCAUGUUAAAU [Eternabot (L2) Solution 39] (Eterna round: R97, puzzle: Exclusion 4)
- apparent KD of MS2 coat protein (input ligand: FMN 200 uM): 168 nM
- apparent KD of MS2 coat protein (input ligand: none): 183 nM

Sequence: AACCAGCGAGGAUAUGCUUGCGCGUGUUCUAGUUGUAAUCGACUUGAGGAUCACCCAAGUAGAAGGCGCUGCCG [EX2 #50] (Eterna round: R97, puzzle: Exclusion 2)
- apparent KD of MS2 coat protein (input ligand: FMN 200 uM): 103 nM
- apparent KD of MS2 coat protein (input ligand: none): 119 nM

Sequence: AACCGGCGGACCGAAGCUUUUUGCUUGUUUUAUACUACUACAUGAGGAUCACCCAUGUCGUGGUGGUCUGUUGUAGA [Bibe] (puzzle: Sensor v3, turn-off variant 2)
- apparent KD of MS2 coat protein [1]: 38.9 nM
- apparent KD of MS2 coat protein [2]: 15.7 nM
- apparent KD of MS2 coat protein [3]: 33.2 nM

Sequence: AACCUGAGGCUUUGCUUUAGGUAUACAUGAGGAUCACCCAUGUAGGAUAUGGUAGGCUUUGCUUACCAGAAGGACAUGUUAAUU [JL ENG3 1.10] (Eterna round: R96, puzzle: Exclusion NG 3)
- apparent KD of MS2 coat protein (input ligand: FMN 200 uM): 136 nM
- apparent KD of MS2 coat protein [4]: 41.7 nM
- apparent KD of MS2 coat protein (input ligand: none): 44.2 nM

Sequence: AACGUCUAGGUAGGAUAUCCACCAACAGGUGGAAGGAUAUGGAAACAGAAGGUUCGCCAACAGGCGGAGAAGGACCUACGCGUA [pwkr exNG2 2xF7 2xFMN.25] (Eterna round: R96, puzzle: Exclusion NG 2)
- apparent KD of MS2 coat protein (input ligand: FMN 200 uM): 50.4 nM
- apparent KD of MS2 coat protein [4]: 162 nM
- apparent KD of MS2 coat protein (input ligand: none): 387 nM

Sequence: AAGAAACAUGAGGAUCACCCAUGUGAGGAUAUGACUAAGAAAAGAAAAGAAAGAAGAAUCAGAAGGCACAAAGG [salish99-ex1_r3_053] (puzzle: Exclusion 1)
- apparent KD of MS2 coat protein [1]: 29.7 nM
- apparent KD of MS2 coat protein [2]: 43 nM
- apparent KD of MS2 coat protein [3]: 49.3 nM

Sequence: AAGAAACAUGAGGAUCACCCAUGUGAGGAUAUGAGUAAGAAAAGAAAAGAAAGAAGAAUCAGAAGGCACAAAGG [salish99-ex1_r3_048] (puzzle: Exclusion 1)
- apparent KD of MS2 coat protein [1]: 55.2 nM
- apparent KD of MS2 coat protein [2]: 38.3 nM
- apparent KD of MS2 coat protein [3]: 38.3 nM

Sequence: AAGAAACAUGAGGAUCACCCAUGUGAGGAUAUGAUAAAGAAAAGAAAAGAAAGAAGAAUCAGAAGGCACAAAGG [salish99-ex1_r3_031] (puzzle: Exclusion 1)
- apparent KD of MS2 coat protein [1]: 129 nM
- apparent KD of MS2 coat protein [2]: 51 nM
- apparent KD of MS2 coat protein [3]: 54 nM

Sequence: AAGAAACAUGAGGAUCACCCAUGUGAGGAUAUGAUCAAGAAAAGAAAAGAAAGAAGAAUCAGAAGGCACAAAGG [salish99-ex1_r3_044] (puzzle: Exclusion 1)
- apparent KD of MS2 coat protein [1]: 295 nM
- apparent KD of MS2 coat protein [2]: 176 nM
- apparent KD of MS2 coat protein [3]: 342 nM

Sequence: AAGAAACAUGAGGAUCACCCAUGUGAGGAUAUGAUCAAGAAAAGAAAAGAAAGAAGAGUCAGAAGGCACAAAGG [salish99-ex1_r3_065] (puzzle: Exclusion 1)
- apparent KD of MS2 coat protein [1]: 282 nM
- apparent KD of MS2 coat protein [2]: 291 nM
- apparent KD of MS2 coat protein [3]: 418 nM

Sequence: AAGAAACAUGAGGAUCACCCAUGUGAGGAUAUGAUGAAGAAAAGAAAAGAAAGAAGAUUCAGAAGGCACAAAGG [salish99-ex1_r3_055] (puzzle: Exclusion 1)
- apparent KD of MS2 coat protein [1]: 113 nM
- apparent KD of MS2 coat protein [2]: 48.9 nM
- apparent KD of MS2 coat protein [3]: 80.5 nM

Sequence: AAGAAACGAGGAUAUACAAUUAAGUGAGAGAGGGAAAUGUGACAUGAGGAUCACCCAUGUAGAAGGCGUAAGAG [JR_Exclu2_Sub084] (puzzle: Exclusion 2)
- apparent KD of MS2 coat protein [1]: 66.2 nM
- apparent KD of MS2 coat protein [2]: 44.2 nM
- apparent KD of MS2 coat protein [3]: 53.5 nM

Sequence: AAGAAACGAGGAUAUACAAUUGAGUGAGAGAGGGAAGUGUGACAUGAGGAUCACCCAUGUAGAAGGCGUAAGAG [JR_Exclu2_Sub085] (puzzle: Exclusion 2)
- apparent KD of MS2 coat protein [1]: 124 nM
- apparent KD of MS2 coat protein [2]: 79.5 nM
- apparent KD of MS2 coat protein [3]: 73.9 nM

Sequence: AAGAAACGGCAGGAUAUCCAGUCGAGAGAAAUAGGAGAAGGGCCAACAUGAGGAUCACCCAUGUCGGUGGCCUC [Rariinon] (Eterna round: R97, puzzle: Exclusion 6)
- apparent KD of MS2 coat protein (input ligand: FMN 200 uM): 145 nM
- apparent KD of MS2 coat protein (input ligand: none): 78.5 nM

Sequence: AAGAAGAAGUAAGGAUAUGAAGAUCUGGUGGUGACAUGAGGAUCACCCAUGUGAAAACAAUAAGAUCAGAAGGUAUAAGAAGAA [AK ExNG2-3.1] (Eterna round: R96, puzzle: Exclusion NG 2)
- apparent KD of MS2 coat protein (input ligand: FMN 200 uM): 81 nM
- apparent KD of MS2 coat protein [4]: 70.4 nM
- apparent KD of MS2 coat protein (input ligand: none): 87.9 nM

Sequence: AAGAUACAUGAGGAUCACCCAUGUGAGGAUAUGAGUCAGUCACGGUGACGUGGCUGACUCAGAAGGCACAAAGG [JL-ex1-4.36 salish99 mod] (Eterna round: R97, puzzle: Exclusion 1)
- apparent KD of MS2 coat protein (input ligand: FMN 200 uM): 176 nM
- apparent KD of MS2 coat protein (input ligand: none): 110 nM

Sequence: AAGAUGCGGGUAGGAUAUGGAGAGAAAGAAAGACCAGAAGGACUGGUCACACAACAUGAGGAUCACCCAUGUGUGUGUUGCGAA [EX ng 1 6] (Eterna round: R96, puzzle: Exclusion NG 1)
- apparent KD of MS2 coat protein [4]: 8.52 nM

Sequence: AAGCUGUCAGGAUAUCGUUAAUUUAGUUGUUUGUAUUAGUUCGAGAAGGGACAUGAGGAUCACCCAUGUAUGAA [Ex4 #41] (Eterna round: R97, puzzle: Exclusion 4)
- apparent KD of MS2 coat protein (input ligand: FMN 200 uM): 62.7 nM
- apparent KD of MS2 coat protein (input ligand: none): 31 nM

Sequence: AAGGAGUUAGGAUAUCGAAGAAGAAGAAGAAGAAGAAGAAGCGAGAAGGAACAUGAGGAUCACCCAUGUAAGAA [JR_Exclu4_Sub028] (puzzle: Exclusion 4)
- apparent KD of MS2 coat protein [1]: 32.5 nM
- apparent KD of MS2 coat protein [2]: 50.5 nM
- apparent KD of MS2 coat protein [3]: 41.5 nM

Sequence: AAGGAUAGAGGAUAUACAUAGAUACAGAUUCAUGUAGUCCUACAUGAGGAUCACCCAUGUAGAAGGCUAUCCUA [Fiskers Ex 2 - 12] (Eterna round: R96, puzzle: Exclusion 2)
- apparent KD of MS2 coat protein (input ligand: FMN 200 uM): 103 nM
- apparent KD of MS2 coat protein [4]: 14.3 nM
- apparent KD of MS2 coat protein (input ligand: none): 18.7 nM

Sequence: AAGGAUAGAGGAUAUACAUAGAUACAGAUUCAUGUAGUCCUACAUGAGGAUCACCCAUGUAGAAGGCUAUCCUA [Fiskers Ex 2 - 12] (puzzle: Exclusion 2)
- apparent KD of MS2 coat protein [2]: 15.7 nM

Sequence: AAGGCGUCAGGAUAUCCAAUAUAUGACAUGAGGAUCACCCAUGUUUCCACUCGUACCUCCGGAGAAGGGACAAAUA [Ex5 #87] (Eterna round: R97, puzzle: Exclusion 5)
- apparent KD of MS2 coat protein (input ligand: FMN 200 uM): 35.6 nM
- apparent KD of MS2 coat protein (input ligand: none): 38 nM

Sequence: AAGGGUGCCCUUAGAAAGACAUGAGGAUCACCCAUGUAGACUGAGGAUAUCCACUCCUAAGGACCGGAGAAGGCAGUGUAAUGC [Qubion] (Eterna round: R96, puzzle: Exclusion NG 3)
- apparent KD of MS2 coat protein (input ligand: FMN 200 uM): 16.9 nM
- apparent KD of MS2 coat protein [4]: 13.8 nM
- apparent KD of MS2 coat protein (input ligand: none): 18.2 nM

Sequence: AAGGGUGCCUUUAGAACGACAUGAGGAUCACCCAUGUAGACUGAGGAUAUCUACUCCUAAGGACCGGAGAAGGCAGUGUAAUGC [Ex NG3 #63] (Eterna round: R96, puzzle: Exclusion NG 3)
- apparent KD of MS2 coat protein (input ligand: FMN 200 uM): 72.1 nM
- apparent KD of MS2 coat protein [4]: 41.4 nM
- apparent KD of MS2 coat protein (input ligand: none): 58.9 nM

Sequence: AAGGUACGAGGAUAUACAUAGAUACAGACACAUGUGCAUGUACAUGAGGAUCACCCAUGUAGAAGGCGUAUAUA [AJ 18] (Eterna round: R96, puzzle: Exclusion 2)
- apparent KD of MS2 coat protein (input ligand: FMN 200 uM): 248 nM
- apparent KD of MS2 coat protein [4]: 50.2 nM
- apparent KD of MS2 coat protein (input ligand: none): 51.8 nM

Sequence: AAGUAACAUGAGGAUCACCCAUGUUAGGAUAUCUCGGCCACAGGAACGCUGUAAAGCCAGAGAAGGAGCGGGUG [Mabi] (Eterna round: R97, puzzle: Exclusion 1)
- apparent KD of MS2 coat protein (input ligand: FMN 200 uM): 156 nM
- apparent KD of MS2 coat protein (input ligand: none): 127 nM

Sequence: AAGUACCGUCACGAAAGUGAUGGUACAACAAGCAAAUGUACAUGAGGAUCACCCAUGUCCUCAAUUGCUCGUCUUAU [Sensor 3 - 57] (puzzle: Sensor v3, turn-off variant 2)
- apparent KD of MS2 coat protein [1]: 88.2 nM
- apparent KD of MS2 coat protein [2]: 176 nM
- apparent KD of MS2 coat protein [3]: 92.8 nM

Sequence: AAGUACCGUCACGAUAGUGAUGGUACAACAAGCAGUGAAACAUGAGGAUCACCCAUGUCCUCGAUUGCUCGUCUUAU [Sensor 3 - 80] (puzzle: Sensor v3, turn-off variant 2)
- apparent KD of MS2 coat protein [1]: 67.7 nM
- apparent KD of MS2 coat protein [2]: 142 nM
- apparent KD of MS2 coat protein [3]: 66.3 nM

Sequence: AAGUACUACAAGCUUCGGGACAUGAGGAUCACCCAUGUUCGUCUUAUUGAUCUAGGUACGCUGACGUACCUAGAUCU [Mat - Sensor v3 - turn-off var 1 - JL Mod - D11] (puzzle: Sensor v3, turn-off variant 1)
- apparent KD of MS2 coat protein [1]: 14.1 nM
- apparent KD of MS2 coat protein [2]: 39.2 nM
- apparent KD of MS2 coat protein [3]: 14.2 nM

Sequence: AAGUAGGCAGGAUAUACAUGAGGAUCACCCAUGUGCCUAUACAAGGUAAUCUUGGGAGGUAGAAGGGCCUACAA [ChP 13.04.2015 #3] (puzzle: Exclusion 3)
- apparent KD of MS2 coat protein [2]: 33 nM

Sequence: AAGUCGAGCGUGAGGAUAUCGUUCGAACGACCGAACGAGAAGGCACAUGAGGAUCACCCAUGUGAUUCAGUUCA [Brourd's EX4 #46] (Eterna round: R97, puzzle: Brourd's mod of Exclusion 4)
- apparent KD of MS2 coat protein (input ligand: FMN 200 uM): 39.8 nM
- apparent KD of MS2 coat protein (input ligand: none): 17.8 nM

Sequence: AAUAAACAUGAGGAUCACCCAUGUGAGGAUAUGCAAAUAAAUAAAUAAAUAAAUAAUAGUAGAAGGCGCAAUAA [Excls1-I] (puzzle: Exclusion 1)
- apparent KD of MS2 coat protein [1]: 34 nM
- apparent KD of MS2 coat protein [2]: 52.6 nM
- apparent KD of MS2 coat protein [3]: 63 nM

— the supplement of paper PMC9170038
